Data taken from US20090041763A1 (UNIVERSITY OF ULSAN FOUNDATION FOR INDUSTRY COOPERATION, published 2009).

Biological target: T1, 4-1BB-GST fusion protein (human 4-1BB fused to glutathione-S-transferase, expressed in E. coli) (human, UniProt Q07011 24-186)
T1 construct: The order of the parts follows the printed name 4-1BB-GST; not shown: glutathione-S-transferase (GST) from the pGEX3 vector (Pharmacia)
Assay: ELISA, transfectant culture supernatant on 4-1BB-GST antigen; reference is 293 EBNA cultured supernatant
Method: The completely humanized sequence to constant region was subcloned to pcDNA, a eukaryote expressing vectors, transfected into 293EBNA cells and serial analyses i.e., ELISA and western blotting analysis were performed using by the cell medium. 4-1BB-GST was used as an antigen for ELISA and each 50 numbers of transfectant medium was used therein.

- fold over negative control (ELISA): ~15 times
B1: completely humanized antibody HBBK4-75 (H2L2) (antibody, V domains shown)
VH: QVQLQQSGAEVIKPGASVKLSCKASGYTFSSYWMHWVRQAPGQGLEWIGEINPGNGHTNYNEKFKSRATLTGDTSTSTVYMELSSLRSEDTAVYYCARSFTTARAFAYWGQGTLVTVSS
VL: DIVMTQSPAFLSVTPGEKVTITCRASQTISDYLHWYQQKPDQAPKLLIKYASQSISGIPSRFSGSGSGTDFTFTISSLEAEDAATYYCQDGHSFPPTFGQGTKLEIKT
notes: the VH is the same in both; also called clone 75; HBBK4-75/pcDNA
